Starred links: 1 amine or outer side, 2 acyl side, 3 side chain; linkers in the order of their positions; H or OH if unused. Positions of bridges follow the written chain, without caps; N, C: chain ends. Non-standard residues stand in square brackets, D forms with d. No end group written: not given here. *: point of attachment. FITC = O=C1OC2(c3ccc(O)cc3Oc3cc(O)ccc32)c2ccc(NC(=S)*)cc21; TATA = O=C(CC[*:1])N1CN(C(=O)CC[*:2])CN(C(=O)CC[*:3])C1; Ahx = NCCCCCC(=O)O; Fl = fluorescein; Sar = CNCC(=O)O
B1: BCY7508 (peptide)
peptide: Ac-CPHIGRTDCPPCA[Sar][Sar][Sar][Sar][Sar][Sar]K(Fl)
modifications: linker 1-9-12 via TATA
B2: BCY7766 (peptide)
peptide: {FITC-Ahx}-GRGSSP
notes: also called FITC-Ahx-GRGSSP

Columns and labels:
integrin αvβ3 [1] = biological target: integrin αvβ3 (Homo sapiens, UniProt P05106+P06756); test: Human FP direct binding assay; settings: Table 3; fluorescently modified peptides; Integrin aVb3
Method: (§1) Affinity of selected fluorescently modified peptides of the invention for integrin αvβ3 (Kd) (and αvβ5 to test for selectivity) was determined using a human direct binding assay analogous to that described in Schottelius et al. (2009) Acc. Chem. Res. 42, 969-980.

integrin αvβ3 [2] = biological target: T1, integrin αvβ3 (human, UniProt P06756 31-992; P05106 27-718); test: Human FP Direct binding
T1 construct: also called Integrin aVb3
Method: as §1

T1 sequence (P06756 31-992, chain 1 of 2): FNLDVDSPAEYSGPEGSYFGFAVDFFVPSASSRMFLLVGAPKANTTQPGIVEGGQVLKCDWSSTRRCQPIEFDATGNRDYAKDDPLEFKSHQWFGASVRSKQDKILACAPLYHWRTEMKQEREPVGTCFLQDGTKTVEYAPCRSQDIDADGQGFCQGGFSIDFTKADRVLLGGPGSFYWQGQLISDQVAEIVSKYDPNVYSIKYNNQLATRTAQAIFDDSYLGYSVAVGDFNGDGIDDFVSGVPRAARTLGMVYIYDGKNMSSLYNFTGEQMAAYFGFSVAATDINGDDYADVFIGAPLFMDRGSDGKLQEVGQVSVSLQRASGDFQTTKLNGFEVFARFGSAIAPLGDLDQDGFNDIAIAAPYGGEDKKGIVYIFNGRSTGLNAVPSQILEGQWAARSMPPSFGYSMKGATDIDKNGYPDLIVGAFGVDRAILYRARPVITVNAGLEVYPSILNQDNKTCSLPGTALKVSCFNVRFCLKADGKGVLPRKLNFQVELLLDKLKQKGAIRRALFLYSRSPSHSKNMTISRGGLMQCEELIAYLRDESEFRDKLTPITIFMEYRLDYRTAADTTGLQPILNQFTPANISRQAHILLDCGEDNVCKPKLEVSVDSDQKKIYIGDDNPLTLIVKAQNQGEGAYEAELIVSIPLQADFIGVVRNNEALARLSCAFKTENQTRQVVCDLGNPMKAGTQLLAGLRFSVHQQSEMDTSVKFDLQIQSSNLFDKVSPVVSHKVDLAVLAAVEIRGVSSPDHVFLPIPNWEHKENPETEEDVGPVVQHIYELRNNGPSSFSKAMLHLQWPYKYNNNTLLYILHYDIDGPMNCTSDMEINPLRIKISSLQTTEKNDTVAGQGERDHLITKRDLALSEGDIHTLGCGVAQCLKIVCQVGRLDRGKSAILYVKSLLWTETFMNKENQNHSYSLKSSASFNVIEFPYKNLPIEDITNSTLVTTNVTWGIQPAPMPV
T1 sequence (P05106 27-718, chain 2 of 2): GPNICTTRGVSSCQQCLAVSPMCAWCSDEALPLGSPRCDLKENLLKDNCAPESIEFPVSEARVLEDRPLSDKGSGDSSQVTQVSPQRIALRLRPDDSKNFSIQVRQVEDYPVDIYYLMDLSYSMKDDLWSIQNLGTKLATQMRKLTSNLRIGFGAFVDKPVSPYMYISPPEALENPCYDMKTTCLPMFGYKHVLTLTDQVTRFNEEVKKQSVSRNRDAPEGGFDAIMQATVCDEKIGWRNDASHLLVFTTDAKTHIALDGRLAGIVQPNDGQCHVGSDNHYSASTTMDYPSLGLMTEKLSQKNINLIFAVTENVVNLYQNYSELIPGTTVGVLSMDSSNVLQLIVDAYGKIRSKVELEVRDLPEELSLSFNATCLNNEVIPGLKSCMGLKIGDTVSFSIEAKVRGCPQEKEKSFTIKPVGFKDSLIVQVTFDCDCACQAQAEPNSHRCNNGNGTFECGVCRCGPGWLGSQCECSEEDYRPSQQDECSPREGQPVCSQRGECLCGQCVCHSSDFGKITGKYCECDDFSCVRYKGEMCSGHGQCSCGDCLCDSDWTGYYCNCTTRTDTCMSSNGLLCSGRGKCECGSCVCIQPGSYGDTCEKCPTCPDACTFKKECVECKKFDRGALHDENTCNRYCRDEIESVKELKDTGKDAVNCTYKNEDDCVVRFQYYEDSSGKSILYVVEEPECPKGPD
integrin αvβ3 (Homo sapiens, UniProt P05106+P06756), sequence (P06756 31-889 limits assumed): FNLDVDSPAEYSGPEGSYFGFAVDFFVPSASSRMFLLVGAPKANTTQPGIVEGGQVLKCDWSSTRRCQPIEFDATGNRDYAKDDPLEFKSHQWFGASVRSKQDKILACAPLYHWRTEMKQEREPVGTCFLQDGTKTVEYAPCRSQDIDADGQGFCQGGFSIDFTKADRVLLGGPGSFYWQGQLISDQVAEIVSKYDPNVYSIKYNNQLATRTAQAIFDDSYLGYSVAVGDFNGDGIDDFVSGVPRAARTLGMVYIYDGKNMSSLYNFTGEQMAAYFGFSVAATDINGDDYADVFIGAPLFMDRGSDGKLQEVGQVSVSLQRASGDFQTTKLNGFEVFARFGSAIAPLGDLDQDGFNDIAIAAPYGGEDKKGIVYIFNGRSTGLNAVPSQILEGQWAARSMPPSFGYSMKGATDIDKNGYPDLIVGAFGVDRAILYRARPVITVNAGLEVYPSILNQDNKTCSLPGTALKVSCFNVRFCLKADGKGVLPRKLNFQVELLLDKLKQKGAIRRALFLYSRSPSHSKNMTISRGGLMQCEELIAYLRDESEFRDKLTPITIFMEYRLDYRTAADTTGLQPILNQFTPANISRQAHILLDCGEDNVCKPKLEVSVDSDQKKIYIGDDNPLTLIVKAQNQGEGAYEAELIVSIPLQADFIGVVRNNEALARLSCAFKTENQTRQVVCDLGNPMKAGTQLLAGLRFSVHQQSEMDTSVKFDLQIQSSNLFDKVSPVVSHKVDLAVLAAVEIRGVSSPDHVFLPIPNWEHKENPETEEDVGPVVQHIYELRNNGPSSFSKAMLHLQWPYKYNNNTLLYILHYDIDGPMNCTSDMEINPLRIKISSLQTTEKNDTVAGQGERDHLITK
integrin αvβ3 (Homo sapiens, UniProt P05106+P06756), sequence (P06756 891-1048 partner limits assumed): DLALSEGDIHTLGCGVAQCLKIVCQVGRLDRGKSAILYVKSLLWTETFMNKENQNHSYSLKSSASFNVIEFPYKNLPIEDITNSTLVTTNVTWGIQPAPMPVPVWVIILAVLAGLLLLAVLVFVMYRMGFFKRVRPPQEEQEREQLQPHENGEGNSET
integrin αvβ3 (Homo sapiens, UniProt P05106+P06756), sequence (P05106 27-788): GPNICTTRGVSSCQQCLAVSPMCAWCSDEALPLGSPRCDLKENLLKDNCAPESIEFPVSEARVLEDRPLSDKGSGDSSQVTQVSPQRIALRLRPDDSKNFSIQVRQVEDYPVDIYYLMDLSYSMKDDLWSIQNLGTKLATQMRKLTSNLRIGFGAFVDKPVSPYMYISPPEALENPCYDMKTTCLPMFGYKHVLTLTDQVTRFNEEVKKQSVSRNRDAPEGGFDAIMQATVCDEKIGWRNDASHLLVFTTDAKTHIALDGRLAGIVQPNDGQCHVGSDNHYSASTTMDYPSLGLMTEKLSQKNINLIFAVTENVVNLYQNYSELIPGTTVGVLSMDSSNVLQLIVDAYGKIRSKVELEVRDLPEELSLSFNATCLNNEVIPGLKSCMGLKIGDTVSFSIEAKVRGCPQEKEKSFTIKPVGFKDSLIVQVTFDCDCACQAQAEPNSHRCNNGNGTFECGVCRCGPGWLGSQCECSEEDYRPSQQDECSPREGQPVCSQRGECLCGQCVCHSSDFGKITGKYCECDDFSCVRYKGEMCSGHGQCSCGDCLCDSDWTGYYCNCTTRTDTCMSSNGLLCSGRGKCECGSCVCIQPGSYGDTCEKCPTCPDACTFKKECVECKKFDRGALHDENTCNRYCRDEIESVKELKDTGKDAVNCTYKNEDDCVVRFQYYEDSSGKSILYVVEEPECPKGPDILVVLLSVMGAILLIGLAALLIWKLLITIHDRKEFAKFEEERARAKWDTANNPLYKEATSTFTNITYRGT

Molecule | Kd (integrin αvβ3 [1]) [nM] | Kd (integrin αvβ3 [2]) [nM]
{FITC-Ahx}-GRGSSP [BCY7766] | 1.15 | 
B1 |  | 0.05
B2 |  | 1.15

— patent US20220064221A1, “BICYCLIC PEPTIDE LIGANDS SPECIFIC FOR INTEGRIN ALPHA-V-BETA-3” (BicycleTx Limited, priority 2019, published 2022)
